Data reported in US6632626 (dated 2003).

B1: CVIM with glutamic acid at the X position (peptide)
peptide: CVIE
B2: CVIM with lysine at the X position (peptide)
peptide: CVIK
B3: CVIM with glycine at the X position (peptide)
peptide: CVIG
B4: CAIL (peptide)
peptide: CAIL

Assays:
[1] = molecular target: T1, rat brain farnesyl:protein transferase (rat, UniProt Q04631 2-377; Q02293 1-437); experiment: cell-based or functional assay
[2] = molecular target: T1, rat brain farnesyl:protein transferase; experiment: cell-based or functional assay; remark: listed apart in the source

Binder | concentration giving 50% inhibition (farnesyl transfer to p21^H-ras) [1] | Concentration for 50% Inhibition (farnesyl transfer to p21^H-ras) [2]
B1 | > 40 µM | 
B2 | > 40 µM | 
B3 | > 40 µM | 
B4 |  | 100 µM
